Results taken from the supplement of paper PMC10567573.

B1: FBXO34 (parent)
chain: PRYREDPCKQCKKKYVKGDVSLCR

Variants of: B1
Assay: protein stability index of a GFP-peptide fusion (GPS, HEK-293T) (PSI 1-6); higher = more stable
Details: c terminus: a fixed tail appended
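Also: lentivirally expressed fusions sorted by FACS into six bins by GFP to DsRed ratio, PSI derived from sequencing read proportions per bin multiplied by bin number.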

| Variant | protein stability index |
| --- | --- |
| PRYREDPGKQCKKKYVKGDVSLCR [C8G] | 4.35 |
| PRYREDPNKQCKKKYVKGDVSLCR [C8N] | 3.86 |
| PRYREDPMKQCKKKYVKGDVSLCR [C8M] | 2.95 |
| PRYREDPWKQCKKKYVKGDVSLCR [C8W] | 3.02 |
| PRYREDPKKQCKKKYVKGDVSLCR [C8K] | 3.88 |
| PRYREDPTKQCKKKYVKGDVSLCR [C8T] | 3.98 |
| PRYREDPYKQCKKKYVKGDVSLCR [C8Y] | 3.33 |
| PRYREDPPKQCKKKYVKGDVSLCR [C8P] | 3.7 |
| PRYREDPEKQCKKKYVKGDVSLCR [C8E] | 4.06 |
| PRYREDPVKQCKKKYVKGDVSLCR [C8V] | 3.61 |
| PRYREDPDKQCKKKYVKGDVSLCR [C8D] | 4.16 |
| PRYREDPIKQCKKKYVKGDVSLCR [C8I] | 3.57 |
| PRYREDPRKQCKKKYVKGDVSLCR [C8R] | 3.81 |
| PRYREDPFKQCKKKYVKGDVSLCR [C8F] | 3.15 |
| PRYREDPLKQCKKKYVKGDVSLCR [C8L] | 3.71 |
| PRYREDPHKQCKKKYVKGDVSLCR [C8H] | 3.63 |
| PRYREDPQKQCKKKYVKGDVSLCR [C8Q] | 3.87 |
| PRYREDPSKQCKKKYVKGDVSLCR [C8S] | 3.82 |
| PRYREDPCKQCYKKYVKGDVSLCR [K12Y] | 2.46 |
| PRYREDPCKQCCKKYVKGDVSLCR [K12C] | 1.58 |
| PRYREDPCKQCTKKYVKGDVSLCR [K12T] | 2.57 |
| PRYREDPCKQCEKKYVKGDVSLCR [K12E] | 2.86 |
| PRYREDPCKQCPKKYVKGDVSLCR [K12P] | 3.25 |
| PRYREDPCKQCIKKYVKGDVSLCR [K12I] | 2.33 |

| Variant | protein stability index |
| --- | --- |
| PRYREDPCKQCNKKYVKGDVSLCR [K12N] | 2.39 |
| PRYREDPCKQCLKKYVKGDVSLCR [K12L] | 2.28 |
| PRYREDPCKQCRKKYVKGDVSLCR [K12R] | 3.54 |
| PRYREDPCKQCDKKYVKGDVSLCR [K12D] | 2.57 |
| PRYREDPCKQCSKKYVKGDVSLCR [K12S] | 2.54 |
| PRYREDPCKQCHKKYVKGDVSLCR [K12H] | 2.76 |
| PRYREDPCKQCVKKYVKGDVSLCR [K12V] | 2.31 |
| PRYREDPCKQCFKKYVKGDVSLCR [K12F] | 1.79 |
| PRYREDPCKQCWKKYVKGDVSLCR [K12W] | 2.37 |
| PRYREDPCKQCGKKYVKGDVSLCR [K12G] | 2.5 |
| PRYREDPCKQCAKKYVKGDVSLCR [K12A] | 2.52 |
| PRYREDPCKQCMKKYVKGDVSLCR [K12M] | 2.18 |
| PRYREDPCKQCQKKYVKGDVSLCR [K12Q] | 2.57 |
| PRYREDPCYQCKKKYVKGDVSLCR [K9Y] | 2.6 |
| PRYREDPCTQCKKKYVKGDVSLCR [K9T] | 2.66 |
| PRYREDPCMQCKKKYVKGDVSLCR [K9M] | 2.45 |
| PRYREDPCEQCKKKYVKGDVSLCR [K9E] | 3.33 |
| PRYREDPCAQCKKKYVKGDVSLCR [K9A] | 2.53 |
| PRYREDPCQQCKKKYVKGDVSLCR [K9Q] | 2.72 |
| PRYREDPCGQCKKKYVKGDVSLCR [K9G] | 2.59 |
| PRYREDPCLQCKKKYVKGDVSLCR [K9L] | 2.42 |
| PRYREDPCPQCKKKYVKGDVSLCR [K9P] | 2.28 |
| PRYREDPCIQCKKKYVKGDVSLCR [K9I] | 2.16 |
| PRYREDPCWQCKKKYVKGDVSLCR [K9W] | 2.26 |

| Variant | protein stability index |
| --- | --- |
| PRYREDPCNQCKKKYVKGDVSLCR [K9N] | 2.46 |
| PRYREDPCFQCKKKYVKGDVSLCR [K9F] | 2.14 |
| PRYREDPCDQCKKKYVKGDVSLCR [K9D] | 2.54 |
| PRYREDPCHQCKKKYVKGDVSLCR [K9H] | 2.29 |
| PRYREDPCVQCKKKYVKGDVSLCR [K9V] | 2.82 |
| PRYREDPCSQCKKKYVKGDVSLCR [K9S] | 2.51 |
| PRYREDPCRQCKKKYVKGDVSLCR [K9R] | 2.53 |
| PRYREDPCCQCKKKYVKGDVSLCR [K9C] | 2.35 |
| PRYREDPCKQCKNKYVKGDVSLCR [K13N] | 2.66 |
| PRYREDPCKQCKGKYVKGDVSLCR [K13G] | 2.68 |
| PRYREDPCKQCKPKYVKGDVSLCR [K13P] | 1.68 |
| PRYREDPCKQCKIKYVKGDVSLCR [K13I] | 2.05 |
| PRYREDPCKQCKVKYVKGDVSLCR [K13V] | 2.59 |
| PRYREDPCKQCKSKYVKGDVSLCR [K13S] | 2.63 |
| PRYREDPCKQCKCKYVKGDVSLCR [K13C] | 2.23 |
| PRYREDPCKQCKQKYVKGDVSLCR [K13Q] | 2.36 |
| PRYREDPCKQCKWKYVKGDVSLCR [K13W] | 2.65 |
| PRYREDPCKQCKAKYVKGDVSLCR [K13A] | 2.51 |
| PRYREDPCKQCKRKYVKGDVSLCR [K13R] | 2.6 |
| PRYREDPCKQCKMKYVKGDVSLCR [K13M] | 2.47 |
| PRYREDPCKQCKHKYVKGDVSLCR [K13H] | 2.35 |
| PRYREDPCKQCKDKYVKGDVSLCR [K13D] | 2.63 |
| PRYREDPCKQCKEKYVKGDVSLCR [K13E] | 2.69 |
| PRYREDPCKQCKLKYVKGDVSLCR [K13L] | 2.94 |

| Variant | protein stability index |
| --- | --- |
| PRYREDPCKQCKFKYVKGDVSLCR [K13F] | 2.55 |
| PRYREDPCKQCKTKYVKGDVSLCR [K13T] | 2.58 |
| PRYREDPCKQCKYKYVKGDVSLCR [K13Y] | 2.16 |
| PRYREDCCKQCKKKYVKGDVSLCR [P7C] | 2.26 |
| PRYREDVCKQCKKKYVKGDVSLCR [P7V] | 2.19 |
| PRYREDICKQCKKKYVKGDVSLCR [P7I] | 2.38 |
| PRYREDNCKQCKKKYVKGDVSLCR [P7N] | 2.94 |
| PRYREDLCKQCKKKYVKGDVSLCR [P7L] | 1.85 |
| PRYREDGCKQCKKKYVKGDVSLCR [P7G] | 2.7 |
| PRYREDQCKQCKKKYVKGDVSLCR [P7Q] | 2.23 |
| PRYREDHCKQCKKKYVKGDVSLCR [P7H] | 2.23 |
| PRYREDFCKQCKKKYVKGDVSLCR [P7F] | 2.22 |
| PRYREDYCKQCKKKYVKGDVSLCR [P7Y] | 2.44 |
| PRYREDRCKQCKKKYVKGDVSLCR [P7R] | 2.31 |
| PRYREDTCKQCKKKYVKGDVSLCR [P7T] | 2.18 |
| PRYREDKCKQCKKKYVKGDVSLCR [P7K] | 2.51 |
| PRYREDACKQCKKKYVKGDVSLCR [P7A] | 2.8 |
| PRYREDSCKQCKKKYVKGDVSLCR [P7S] | 2.69 |
| PRYREDECKQCKKKYVKGDVSLCR [P7E] | 2.76 |
| PRYREDWCKQCKKKYVKGDVSLCR [P7W] | 3.07 |
| PRYREDDCKQCKKKYVKGDVSLCR [P7D] | 2.85 |
| PRYREDMCKQCKKKYVKGDVSLCR [P7M] | 2.42 |
